Data reported in paper PMC9150817.
Read-outs that look alike come from different tables or passages of the source.

Experiments:
[1] = target: T1, Hfq wild type (recombinant, full-length, non-tagged) (Escherichia coli, UniProt P0A6X3 1-102); assay: 2D-PAGE/immunoblot of reconstituted complex
[2] = target: T1, Hfq wild type (recombinant, …); assay: 2D-PAGE/immunoblot of reconstituted complex; remark: listed apart in the source

T1 sequence (P0A6X3 whole entry): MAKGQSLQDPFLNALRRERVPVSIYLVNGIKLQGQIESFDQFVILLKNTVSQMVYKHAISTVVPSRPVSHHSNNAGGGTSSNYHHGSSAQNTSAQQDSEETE

Binder | binding result [1] | binding result [2]
AAAAAAAAAAAAAAAAAAAA (ssRNA) [(rA)20] | binds | 
UUUUUUUUUUUUUUUUUUUU (ssRNA) [(U)20] | binds | 
AAAAA (ssRNA) [(rA)5] |  | binds
